For one molecule, Kd results are on record in patent US20100062001A1 (TECHNION RESEARCH AND DEVELOPMENT, published 2010).

This assay addresses HLA-A2-G9-209 complex (as used for the affinity of 9H) (human, UniProt P61769 21-119; P40967 209-217). Nature of the assay: method not stated (data not shown).

In general, Kd refers to the concentration at which binding is half-saturated. A high value points to lower affinity.

B1: 9H scFv antibody (scFv)
scFv: EVQLLESGGGLVQPGGSLRLSCAASGFTFQYYAMSWVRQAPGKGLEWVSSINWNSGTLDYADSVKGRFTISRDNSKNTLYLQMNSLRAEDTAVYYCARYSNYGLYAMDVWGQGTLVTVSSSGGGGSGGGGSGGGGSSDIVLTQPPSASGTPGQRVTISCSGSSSNIGSNPVTWYQQLPGTAPKPLIYGDSYRPSGVPDRFSGSKSGTSASLAISGLRSEDEADYYCATWDDDVNGVIFGGGTQLTVLR
notes: also called scFv 9H; clone 9H
The molecule B1 had a Kd of 0.5 nM. That is a sub-nanomolar value.
